Source: patent publication US20140030267A1, “COMPOSITIONS, METHODS AND KITS RELATING TO RESISTIN” (The Trustees of the University of Pennsylvania, priority 1999, published 2014)

Experiments:
[1] = test system: resistin gene expression; experiment: Northern blot of resistin gene expression in 3T3-L1 adipocytes treated with TZD; type: cell-based, murine; details: rosiglitazone 1 μM
Experimental: 3T3-L1 cells were differentiated to adipocytes then treated with the indicated vehicles (ethanol [EtOH] or dimethylsulfoxide [DMSO]) or with the indicated TZD compounds (each at 1 μM). Then, RNA was prepared and analyzed using Northern blot analysis using resistin cDNA probe.
FIG. 6 is an image of a Northern blot depicting the time course of resistin expression down-regulation by rosiglitazone. BRL49653 (rosiglitazone) was used at a concentration of 1 μM in DMSO. The Northern blot was probed using mouse resistin cDNA. The position of resistin mRNA is indicated in the image. 3T3-L1 cells were differentiated to adipocytes then treated with rosiglitazone (1 μM) for the indicated times (in hours) before RNA was isolated. Resistin expression was examined using Northern analysis using resistin cDNA probe.
To clone and identify resistin, 3T3-L1 cells were differentiated into adipocytes using a standard protocol using differentiation medium (DM) containing dexamethasone, insulin, isobutylmethylxanthine, and fetal bovine serum as described in Green and Kehinde (1975, Cell 5:19-27) and Green and Meuth (1974, Cell 3:127-133). On the seventh day of culture, the cells were treated with either dimethylsulfoxide (DMSO) or 1 micromolar BRL49653 (rosiglitazone) in DMSO. […]

[2] = Glucose tolerance test in mice after administration of resistin; type: in vivo
Experimental: Prior to injection into animals, 30 ml of conditioned media harvested from recombinant 293T cells expressing resistin was concentrated into 5 ml using an Ultrafree-15 centrifugal filter device (Millipore).
Male and female mice, 9 weeks of age, were administered 200 microliters of concentrated conditioned media intraperitonially just prior to the dark cycle. Mice were consequently fasted overnight. Twelve hours later, a second intraperitional dose of concentrated CM was administered to each animal. Two hours after the second administration, the mice were given a glucose challenge of 10 microliters per gram of body weight of 20% glucose in PBS solution. Blood glucose levels were determined using a Fast-Take glucometer (Johnson & Johnson) at thirty minute intervals for a two hour period.
The blood glucose levels of mice dosed with resistin are depicted using dotted lines in FIG. 21, and control glucose values are indicated using solid lines (FIG. 21). More specifically, eight female mice (4 per group) were treated with either vehicle (solid lines) or resistin preparation (dashed lines) prepared using conditioned medium obtained from recombinant 293T cells as described elsewhere herein.

Molecule	time after exposure at which the effect on resistin expression is maximal [1] [h]	blood glucose 30 minutes after glucose administration ([2]; female mice, intraperitoneal resistin preparation, 30 minutes after glucose challenge)	glucose tolerance ([2]; mice, resistin preparation)
CN(CCOc1ccc(CC2SC(=O)NC2=O)cc1)c1ccccn1 (stereo not drawn) [rosiglitazone]	48		
resistin: mouse resistin (SEQ ID NO:2) in concentrated conditioned medium of recombinant 293T cells expressing resistin (protein) SSMPLCPIDEAIDKKIKQDFNSLFPNAIKNIGLNCWTVSSRGKLASCPEGTAVLSCSCGSACGSWDIRGGKVCHCQCARIDWTAARCCKLQVAS		395.+−0.67 mg/dl	reducing glucose tolerance to diabetic levels
